Assay [1] has as its target T1, acid β-glucosidase (GCase), Velaglucerase alfa (human, UniProt P04062 40-536, Chain 1 is a glycoprotein with N-linked, mannose-terminated oligosaccharides, which the letters do not carry.).
T1 construct: also called free GCase; human GCase
T1 sequence: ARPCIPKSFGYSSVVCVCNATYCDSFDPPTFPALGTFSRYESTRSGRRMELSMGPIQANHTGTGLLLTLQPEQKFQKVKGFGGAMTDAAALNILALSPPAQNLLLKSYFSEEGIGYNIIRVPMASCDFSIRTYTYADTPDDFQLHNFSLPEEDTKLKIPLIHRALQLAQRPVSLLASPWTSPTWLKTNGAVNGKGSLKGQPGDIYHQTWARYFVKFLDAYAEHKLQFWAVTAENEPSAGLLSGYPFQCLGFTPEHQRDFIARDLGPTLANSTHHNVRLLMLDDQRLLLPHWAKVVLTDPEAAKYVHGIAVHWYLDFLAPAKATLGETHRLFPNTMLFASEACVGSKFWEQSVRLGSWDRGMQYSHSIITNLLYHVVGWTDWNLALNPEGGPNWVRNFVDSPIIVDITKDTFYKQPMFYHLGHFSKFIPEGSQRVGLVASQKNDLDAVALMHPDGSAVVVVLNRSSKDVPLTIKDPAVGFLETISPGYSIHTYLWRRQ
In words: microscale thermophoresis (MST); unlabelled GCase titrated against NBD-PS labelled SapC-DOPS, CP buffer pH 5.6. Here is the method:
(§1) Binding was determined by measuring Kd using a Microscale Thermophoresis (MST) assay system on a Monolith NT.115. MicroScale NanoTemper. Temperature related intensity change (TRIC) together with thermophoresis contribution to the variation of fluorescence intensity was determined. NBD-PS [2-(4-nitro-2,1,3-benzoxadiazol-7-yl)aminoethyl-phophatidylserine (Avanti Polar Lipids Inc., Alabaster, Ala.) was used to fluorescently label DOPS. DOPS in chloroform was mixed with NBD-PS in DMSO at the molar ratio of 3:1. The organic solvent was evaporated under nitrogen gas. Upon suspension in CP buffer (0.1 M Citrate Phosphate buffer, pH 5.6), the mixture solutions were bath sonicated for 30 mins at 4° C. This preparation was tested with SapC or SapB to measure the Kd for binding to DOPS. […]
(§2) The final concentration of the reaction mixtures ranged from GCase/SapC-DOPS-NBD of 1562 nM/7500 nM for the 1st point to 0.024 nM/7500 nM for the 16th point (FIG. 16, Table 3). […] The thermophoresis time was 30 secs with dual reading setting (LED: 20%/40%; MST: 40%/50%). […] The raw data were analyzed to determine Kd values and plotted using MO Affinity Analysis v2.1.3 software (NanoTemper, München, Germany).

Assay [2] has as its target T1, acid β-glucosidase (GCase), …. In words: microscale thermophoresis (MST), NBD-PS labelled vesicles, CP buffer pH 5.6. Here is the method: as §1, §2
A general note: Microscale thermophoresis detects binding through changes in fluorescence in a small temperature gradient.

B1: SapC-DOPS nanovesicles (saposin C with dioleoylphosphatidylserine) (other)
chain: SDVYCEVCEFLVKEVTKLIDNNKTEKEILDAFDKMCSKLPKSLSEECQEVVDTYGSSILSILLEEVSPELVCSMLHLCSG
For B1, the Kd – broadly, the constant that tells how readily two partners part at equilibrium – in assay [1] came to 29.4 nM.

B2: saposin B (SapB)-DOPS (other, UniProt P07602 195-273, looked up)
chain: GDVCQDCIQMVTDIQTAVRTNSTFVQALVEHVKEECDRLGPGMADICKNYISQYSEIAIQMMMHMQPKEICALVGFCDE
notes: SapB formulated with DOPS at a 1:7 molar ratio and labelled with NBD-PS
With B2, the binding result in assay [2] was “no binding”.
